# Measurements published in the supplement of paper PMC9112550, “Optimization of the antimicrobial peptide Bac7 by deep mutational scanning” (BMC Biology, 2022).
# Test system: Escherichia coli TOP10
# Test: shrunken log2 fold change of peptide-encoding DNA abundance (4.5 h post-induction vs induction); higher = less antimicrobial activity (less host growth inhibition)
# Details: time post-induction: 4.5 h; library: site-saturation at positions 5, 18, 19, 20
# 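Also: peptides expressed intracellularly from a pBAD plasmid library in pooled LB shake-flask culture, induced with 0.3% L-arabinose, DNA abundance read by NGS, three biological replicates, DESeq2 with apeglm shrinkage.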
row,Sequence,shrunken log2 fold change
1,RRIRCRPPRLPRPRPRPMHPPRP,-0.00769
2,RRIRNRPPRLPRPRPRPLQQPRP,0.0184
3,RRIRRRPPRLPRPRPRPALHPRP,0.651
4,RRIRYRPPRLPRPRPRPVPEPRP,-0.294
5,RRIRVRPPRLPRPRPRPVYTPRP,-0.324
6,RRIRARPPRLPRPRPRPPRRPRP,0.923
7,RRIRERPPRLPRPRPRPKMDPRP,-0.0491
8,RRIRHRPPRLPRPRPRPSGLPRP,0.0123
9,RRIRERPPRLPRPRPRPVEPPRP,0.0248
10,RRIRARPPRLPRPRPRPWNGPRP,0.0566
11,RRIRGRPPRLPRPRPRPNDPPRP,-0.0529
12,RRIRDRPPRLPRPRPRPMTDPRP,-0.109
13,RRIRIRPPRLPRPRPRPSWQPRP,0.144
14,RRIRRRPPRLPRPRPRPEQLPRP,0.203
15,RRIRDRPPRLPRPRPRPCNYPRP,-0.475
16,RRIRFRPPRLPRPRPRPIHRPRP,-0.0271
17,RRIRWRPPRLPRPRPRPWRFPRP,0.0309
18,RRIRFRPPRLPRPRPRPLSPPRP,-0.476
19,RRIRHRPPRLPRPRPRPHCRPRP,0.0364
20,RRIRERPPRLPRPRPRPFMGPRP,-0.0195

row,Sequence,shrunken log2 fold change
1,RRIRIRPPRLPRPRPRPNGLPRP,0.0383
2,RRIRIRPPRLPRPRPRPPPAPRP,0.543
3,RRIRIRPPRLPRPRPRPFTDPRP,0.0112
4,RRIRNRPPRLPRPRPRPRVNPRP,-0.0734
5,RRIRVRPPRLPRPRPRPYWWPRP,-0.208
6,RRIRIRPPRLPRPRPRPHNEPRP,-1.35
7,RRIRGRPPRLPRPRPRPAACPRP,1.15
8,RRIRYRPPRLPRPRPRPYEVPRP,-0.343
9,RRIRSRPPRLPRPRPRPFPYPRP,-0.115
10,RRIRDRPPRLPRPRPRPISPPRP,-0.036
11,RRIRLRPPRLPRPRPRPRSVPRP,-0.0722
12,RRIRKRPPRLPRPRPRPRTDPRP,0.206
13,RRIRCRPPRLPRPRPRPMDDPRP,-0.194
14,RRIRPRPPRLPRPRPRPYEPPRP,-0.317
15,RRIRYRPPRLPRPRPRPSDRPRP,-0.307
16,RRIRDRPPRLPRPRPRPRQFPRP,0.0037
17,RRIRERPPRLPRPRPRPMAEPRP,0.0131
18,RRIRPRPPRLPRPRPRPGHFPRP,0.0437
19,RRIRMRPPRLPRPRPRPSDEPRP,0.958
20,RRIRYRPPRLPRPRPRPWFIPRP,-0.054

row,Sequence,shrunken log2 fold change
1,RRIRLRPPRLPRPRPRPRKWPRP,0.184
2,RRIRARPPRLPRPRPRPPWRPRP,0.816
3,RRIRYRPPRLPRPRPRPKKMPRP,-0.374
4,RRIRRRPPRLPRPRPRPSIIPRP,-0.332
5,RRIRHRPPRLPRPRPRPEQDPRP,0.057
6,RRIRNRPPRLPRPRPRPAVYPRP,-0.0398
7,RRIRRRPPRLPRPRPRPQQRPRP,0.795
8,RRIRQRPPRLPRPRPRPGWKPRP,0.115
9,RRIRSRPPRLPRPRPRPTPRPRP,0.843
10,RRIRVRPPRLPRPRPRPHKIPRP,-0.53
11,RRIRRRPPRLPRPRPRPMTQPRP,0.176
12,RRIRWRPPRLPRPRPRPPHFPRP,0.701
13,RRIRVRPPRLPRPRPRPSNSPRP,-0.826
14,RRIRLRPPRLPRPRPRPPTQPRP,0.376
15,RRIRFRPPRLPRPRPRPMNHPRP,-0.327
16,RRIRSRPPRLPRPRPRPWGHPRP,0.109
17,RRIRGRPPRLPRPRPRPYEAPRP,0.045
18,RRIRFRPPRLPRPRPRPFVWPRP,-0.0869
19,RRIRMRPPRLPRPRPRPSSCPRP,0.112
20,RRIRSRPPRLPRPRPRPLIDPRP,-0.197
